These results are taken from patent US20230241257A1, “BIOTIN-MODIFIED DIMER AND USE THEREOF” (THE UNIVERSITY OF TOKYO, priority 2020, published 2023).

Assay [1] deals with T1, Recombinant Human CEACAM-5/CD66e Protein, CF (R & D SYSTEMS) (human, UniProt P06731 35-685).
T1 construct: Bought recombinant protein, immobilized on a CM5 chip by amine coupling (279 RU); also called carcinoembryonic antigen
T1 sequence (looked up): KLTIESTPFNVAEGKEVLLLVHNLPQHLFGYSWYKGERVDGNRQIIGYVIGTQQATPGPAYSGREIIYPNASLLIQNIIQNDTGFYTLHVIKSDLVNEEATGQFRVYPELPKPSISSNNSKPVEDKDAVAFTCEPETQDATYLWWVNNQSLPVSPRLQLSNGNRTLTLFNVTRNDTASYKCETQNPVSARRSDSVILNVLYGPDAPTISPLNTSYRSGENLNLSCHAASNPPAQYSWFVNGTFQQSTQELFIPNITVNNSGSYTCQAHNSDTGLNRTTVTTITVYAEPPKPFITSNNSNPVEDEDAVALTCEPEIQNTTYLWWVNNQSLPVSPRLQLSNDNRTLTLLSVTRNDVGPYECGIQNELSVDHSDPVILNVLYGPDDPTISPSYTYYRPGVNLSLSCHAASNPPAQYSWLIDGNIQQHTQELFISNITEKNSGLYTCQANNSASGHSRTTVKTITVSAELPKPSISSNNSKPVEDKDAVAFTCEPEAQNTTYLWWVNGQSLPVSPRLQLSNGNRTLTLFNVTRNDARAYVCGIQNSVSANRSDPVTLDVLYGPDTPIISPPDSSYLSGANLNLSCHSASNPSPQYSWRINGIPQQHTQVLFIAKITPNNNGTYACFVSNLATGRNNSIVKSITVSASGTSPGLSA
Nature of the assay: SPR, Biacore T200, CEACAM5 immobilized on CM5, CEA-V2122 as analyte, single-cycle kinetics, bivalent analysis fit (KD = kd1/ka1). The method, then:
(§1) The affinity of CEA-V2122 for the antigen CEACAM5 was evaluated using a surface plasmon resonance (SPR) measuring device, Biacore T200 (GE Healthcare Life Sciences). Specifically, Recombinant Human CEACAM-5/CD66e Protein, CF (R & D SYSTEMS) was immobilized on Sensor Chip CM5 (GE Healthcare Life Sciences) using an amine-coupling kit (GE Healthcare Life Sciences). The final amount of the ligand immobilized was 279 RU. Moreover, about the purified CEA-V2122, two-fold serial dilutions from 1E-08 M to 6.25E-10 M were prepared as analytes. Regarding interaction analysis, data were obtained by single-cycle kinetics analysis.
On the technique in general: In SPR one partner is held on a chip, and binding of the other changes the refractive index at the surface.

For assay [2], the target named is T2, Recombinant Human CEACAM-5/CD66e Protein (Homo sapiens, UniProt P06731).
T2 construct: purchased R & D SYSTEMS
T2 sequence (P06731 35-676): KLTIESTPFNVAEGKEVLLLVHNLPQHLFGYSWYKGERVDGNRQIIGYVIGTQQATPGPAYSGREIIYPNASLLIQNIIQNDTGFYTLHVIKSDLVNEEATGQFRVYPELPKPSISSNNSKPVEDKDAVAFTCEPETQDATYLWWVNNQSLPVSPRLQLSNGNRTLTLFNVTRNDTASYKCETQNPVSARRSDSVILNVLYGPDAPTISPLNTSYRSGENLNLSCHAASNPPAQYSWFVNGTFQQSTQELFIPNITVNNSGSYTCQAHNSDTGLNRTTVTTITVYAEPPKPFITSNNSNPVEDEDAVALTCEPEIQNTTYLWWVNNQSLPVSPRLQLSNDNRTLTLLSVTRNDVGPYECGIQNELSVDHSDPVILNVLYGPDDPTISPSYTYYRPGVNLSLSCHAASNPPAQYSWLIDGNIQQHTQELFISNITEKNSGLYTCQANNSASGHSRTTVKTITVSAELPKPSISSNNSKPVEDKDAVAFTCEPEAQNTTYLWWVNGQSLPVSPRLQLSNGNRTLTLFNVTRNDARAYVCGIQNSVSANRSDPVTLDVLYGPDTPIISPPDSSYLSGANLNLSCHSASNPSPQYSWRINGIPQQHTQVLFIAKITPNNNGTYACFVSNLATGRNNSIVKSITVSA
Nature of the assay: SPR affinity of CEA-V2122 for the antigen CEACAM5 (Biacore T200). The assay is classed as binding. How it is done: as §1, with “analysis. Using Biacore T200 Evaluation Software, version 2.0, the obtained data were subjected to curve fitting in a bivalent analysis mode, and the following values were obtained: ka1=3.208E+5, and kd1=3.461E−7.” for “analysis.”

[3] abbreviates: single-cycle kinetics, bivalent analysis mode.

B1: CEA-V2122 protein (scFv-type anti-CEACAM5 antibody fused to mutant streptavidin V2122 via the linker GGGGSGGGG) (scFv)
scFv: QVKLEQSGAEVVKPGASVKLSCKASGFNIKDSYMHWLRQGPGQRLEWIGWIDPENGDTEYAPKFQGKATFTTDTSANTAYLGLSSLRPEDTAVYYCNEGTPTGPYYFDYWGQGTLVTVSSGGGGSGGGGSGGGGSENVLTQSPSSMSVSVGDRVNIACSASSSVPYMHWLQQKPGKSPKLLIYLTSNLASGVPSRFSGSGSGTDYSLTISSVQPEDAATYYCQQRSSYPLTFGGGTKLEIKGGGGSGGGGAEAGITGTWSDQLGDTFIVTAGADGALTGTYENAVGGAESRYVLTGRYDSAPATDGSGTALGWTVAWKNNSKNAHSATTWSGQYVGGADAKINTQWLLTSGTTNANAWKSTLVGHDTFTKVKPSAASHHHHHH
notes: It was secreted and purified from the culture supernatant through the His tag and Protein L. The purified product is mainly a tetramer of about 150 kDa; also called Cupid-scFv antibody; CEA-Cupid
For the molecule B1, the Kd in assay [1] is 1.08 pM.

B2: CEA-V2122: scFv-type anti-CEACAM5 antibody bound to mutant streptavidin V2122 via amino acid linker GGGGSGGGG (SEQ ID NO: 3) (protein)
scFv: B1 scFv
Take B2: the “KD=kd1/ka1” value in assay [2] (bivalent analysis) came out at 1.078E−12. In assay [2] (setting [3]), the ka1 is recorded as 3.208E+5 and the kd1 turned out to be 3.461E−7.
